Results reported in paper PMC11321319, “Shy is a proteobacterial steroid hydratase which catalyzes steroid side chain degradation without requiring a catalytically inert partner domain” (The Journal of Biological Chemistry, 2024).
Each block holds one molecule with its values, some of them ahead of it.

Tests used:
[1] = system: T1, C[C@H](/C=C/C(=O)SCCNC(=O)CCNC(=O)[C@H](O)C(C)(C)COP(=O)(O)OP(=O)(O)OC[C@H]1O[C@@H](n2cnc3c(N)ncnc32)[C@H](O)[C@@H]1OP(=O)(O)O)[C@H]1CC[C@H]2[C@@H]3[C@H](O)C[C@@H]4C[C@H](O)CC[C@]4(C)[C@H]3C[C@H](O)[C@]12C; test: purified protein; format: biochemical, Comamonas testosteroni; settings: 100 mM sodium Hepes pH 7.5, 25 °C
T1 construct: C-terminal MaoC domain only (DUF35 removed), His-tagged (pET28a NdeI/HindIII), from E. coli BL21 LOBSTR; homodimer

[2] = system: T2, C/C=C/C(=O)SCCNC(=O)CCNC(=O)[C@H](O)C(C)(C)COP(=O)(O)OP(=O)(O)OC[C@H]1O[C@@H](n2cnc3c(N)ncnc32)[C@H](O)[C@@H]1OP(=O)(O)O; test: purified protein; format: biochemical, Comamonas testosteroni; settings: 100 mM sodium Hepes pH 7.5, 25 °C
T2 construct: C-terminal MaoC domain only (DUF35 removed), His-tagged (pET28a NdeI/HindIII), from E. coli BL21 LOBSTR; homodimer

purified protein [3] = substrate: C[C@H](C(O)CC(=O)SCCNC(=O)CCNC(=O)[C@H](O)C(C)(C)COP(=O)(O)OP(=O)(O)OC[C@H]1O[C@@H](n2cnc3c(N)ncnc32)[C@H](O)[C@@H]1OP(=O)(O)O)[C@H]1CC[C@H]2[C@@H]3[C@H](O)C[C@@H]4C[C@H](O)CC[C@]4(C)[C@H]3C[C@H](O)[C@]12C; test: purified protein; format: biochemical, Comamonas testosteroni; settings: 100 mM sodium Hepes pH 7.5, 25 °C, 1 mM NAD+, 7 nM Sad (coupling enzyme)
purified protein [4] = substrate: C/C=C/C(=O)SCCNC(=O)CCNC(=O)[C@H](O)C(C)(C)COP(=O)(O)OP(=O)(O)OC[C@H]1O[C@@H](n2cnc3c(N)ncnc32)[C@H](O)[C@@H]1OP(=O)(O)O; test: purified protein; format: biochemical, Comamonas testosteroni; settings: 100 mM sodium Hepes pH 7.5, 25 °C
purified protein [5] = substrate: C[C@H](/C=C/C(=O)SCCNC(=O)CCNC(=O)[C@H](O)C(C)(C)COP(=O)(O)OP(=O)(O)OC[C@H]1O[C@@H](n2cnc3c(N)ncnc32)[C@H](O)[C@@H]1OP(=O)(O)O)[C@H]1CC[C@H]2[C@@H]3[C@H](O)C[C@@H]4C[C@H](O)CC[C@]4(C)[C@H]3C[C@H](O)[C@]12C; test: purified protein; format: biochemical, Comamonas testosteroni; settings: 100 mM sodium Hepes pH 7.5, 25 °C
purified protein [6] = substrate: C[C@H](/C=C/C(=O)SCCNC(=O)CCNC(=O)[C@H](O)C(C)(C)COP(=O)(O)OP(=O)(O)OC[C@H]1O[C@@H](n2cnc3c(N)ncnc32)[C@H](O)[C@@H]1OP(=O)(O)O)[C@H]1CC[C@H]2[C@@H]3CC=C4C[C@@H](O)CC[C@]4(C)[C@H]3CC[C@]12C; test: purified protein; format: biochemical, Comamonas testosteroni; settings: 100 mM sodium Hepes pH 7.5, 25 °C
[7] = target: T3, N-terminal His-tagged Sal (side chain aldolase / steroid aldolase) from Comamonas testosteroni KF-1 (Comamonas testosteroni KF-1, UniProt B7X4S8 1-404); test: SEC; analytical size-exclusion chromatography, Superdex 200, 20 mM sodium Hepes pH 7.5, 0.15 M NaCl; native molecular weight from a standard curve; settings: both partners purified
T3 construct: gene amplified from genomic DNA; theoretical molecular weight of tagged Sal 46.08 kDa; Cloned into pMCSG7 by ligation independent cloning; source: E. coli BL21 LOBSTR (pMCSG7), coexpressed with untagged Shy or its truncated forms; in cell extract, then purified on Ni-NTA; not shown: His tag, N-terminal, kept
T3 sequence (looked up): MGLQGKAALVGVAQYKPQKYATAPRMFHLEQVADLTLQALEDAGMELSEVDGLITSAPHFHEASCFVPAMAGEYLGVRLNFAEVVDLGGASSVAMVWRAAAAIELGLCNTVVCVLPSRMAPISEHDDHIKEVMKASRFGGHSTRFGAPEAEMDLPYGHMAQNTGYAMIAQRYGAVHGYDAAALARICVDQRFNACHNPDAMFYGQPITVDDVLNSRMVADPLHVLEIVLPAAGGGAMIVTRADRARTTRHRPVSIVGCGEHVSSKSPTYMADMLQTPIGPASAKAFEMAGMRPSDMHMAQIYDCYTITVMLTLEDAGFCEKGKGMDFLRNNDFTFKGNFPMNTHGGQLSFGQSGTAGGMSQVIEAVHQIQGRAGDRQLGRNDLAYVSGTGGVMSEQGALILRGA

[8] = target: the molecule itself; test: as above

Molecule: ShyMaoC (Comamonas testosteroni KF-1; I309F)
Km [1]: 12.3 ± 1.05 µM
kcat [1]: 67.2 ± 2.77 s⁻¹
kcat/Km [1]: 5.46e+06 ± 518000 M⁻¹ s⁻¹
Km [2]: 65.0 ± 3.25 µM
kcat [2]: 0.00555 ± 0.000129 s⁻¹
kcat/Km [2]: 85.4 ± 4.71 M⁻¹ s⁻¹

B1: Shy-Sal (aldolase site in Sal) (Comamonas testosteroni KF-1) (protein)
chain: T3 sequence (looked up)
notes: same complex as P1: N-terminally His-tagged Sal with untagged full-length Shy, from E. coli BL21 LOBSTR; 160 kDa heterotetramer; with Side chain hydratase Shy, bifunctional OB-fold (DUF35) / MaoC family dehydratase domain-containing protein
Km (purified protein [3]): 8.12 ± 0.477 µM
kcat (purified protein [3]): 37.6 ± 0.8 s⁻¹
kcat/Km (purified protein [3]): 4.63e+06 ± 289000 M⁻¹ s⁻¹

B2: ShyMaoC (Comamonas testosteroni KF-1) (protein)
chain: ESEVAVVEQSVAAKRRISVKDIEAMKSLVSEEYSPWSNEFTVSQEVIDEFARLSGDDYWIHTDPVQAREKSPFGTTIAHGALVQVLASQLRIPLDYEVVDFNNMVNYGSDRLRFPTPVPSGCKIRARARIKAVEQVRSGVQATMELNIHVVGQDRPAVINDLVILYM
notes: C-terminal MaoC domain only (DUF35 removed), His-tagged (pET28a NdeI/HindIII), from E. coli BL21 LOBSTR; homodimer
Km (purified protein [4]): 63.6 ± 3.62 µM
kcat (purified protein [4]): 0.00412 ± 0.00011 s⁻¹
kcat/Km (purified protein [4]): 64.8 ± 4.07 M⁻¹ s⁻¹
Km (purified protein [5]): 6.14 ± 0.524 µM
kcat (purified protein [5]): 211 ± 6.71 s⁻¹
kcat/Km (purified protein [5]): 3.44e+07 ± 3.13e+06 M⁻¹ s⁻¹
Km (purified protein [6]): 6.71 ± 0.588 µM
kcat (purified protein [6]): 62.9 ± 2.32 s⁻¹
kcat/Km (purified protein [6]): 9.37e+06 ± 890000 M⁻¹ s⁻¹

stoichiometry N [7]: 1 Shy per Sal (2:2 complex)
B3: Untagged Shy (side chain hydratase) from Comamonas testosteroni KF-1 (enzyme, UniProt B7X4S7 1-312, looked up)
chain: MAWNKPLPHPTEISAPYWEGLKAHEVRIQQCDRGHSLFFPRTHCPTCGSRSLKWSKVSGEGTLYSFTVARIPTMPEFTDEMPQALAVIELREGVRINTTMVGVAPEALKVGMEVRPVFDERPGEVTLLRFTAHAGSHPSVIKADAESEVAVVEQSVAAKRRISVKDIEAMKSLVSEEYSPWSNEFTVSQEVIDEFARLSGDDYWIHTDPVQAREKSPFGTTIAHGALVQVLASQLRIPLDYEVVDFNNMVNYGSDRLRFPTPVPSGCKIRARARIKAVEQVRSGVQATMELNIHVVGQDRPAVINDLVILYM
notes: N-terminal DUF35 domain and C-terminal MaoC domain; theoretical molecular weight 34.81 kDa; called 'the full protein' in the discussion; source: E. coli BL21 LOBSTR (pBTLactac, tagless), coexpressed with His-tagged Sal; in cell extract, then copurified on Ni-NTA
Km (purified protein [5]): 6.19 ± 0.446 µM
kcat (purified protein [5]): 163 ± 1.5 s⁻¹
kcat/Km (purified protein [5]): 2.64e+07 ± 1.91e+06 M⁻¹ s⁻¹

B4: His-tagged Shy_(MaoC), MaoC domain of Shy (domain or fragment, Comamonas testosteroni KF-1, UniProt B7X4S7 148-312, looked up)
chain: EVAVVEQSVAAKRRISVKDIEAMKSLVSEEYSPWSNEFTVSQEVIDEFARLSGDDYWIHTDPVQAREKSPFGTTIAHGALVQVLASQLRIPLDYEVVDFNNMVNYGSDRLRFPTPVPSGCKIRARARIKAVEQVRSGVQATMELNIHVVGQDRPAVINDLVILYM
notes: theoretical molecular weight of the tagged construct 20.5 kDa; Inserted into pET28a between NdeI and HindIII; source: E. coli BL21 LOBSTR (pET28a), purified (Ni-NTA)
stoichiometry N [8]: 2
